# Assay: soluble on expression in E. coli; label from the status in PepcDB or PDB records
row,Sequence,soluble on expression in E. coli
1,MSLELKKFFVLVLLLGSVCPAFCGGDTLHCRFYFPVGSAIPDLSYRDNGPRLDSFLSSIRSLQERAVLRRVRLRSGASPEGNSMLNRRLSDERLVSLRAVMRERLSVPDSVLVCLSSGEDWEGLSVLVGESDMPCRDEVLRILRDTPVWVVRGGKVVDSRKRQLMNLRGGSVWRYMAEHFFPELRNCTVVECEFGPVISGNDREIAVYQKEAEARDTVILRDTVERTVVIRDTVQVPASVGNALKPFYMGLKTNLLYDALLVPNLGVEFYLGRGWSFGGNWMYAWWKSDRHHNYWRIYGGELALRKYFGRRAAEKPLAGHHLGLYGQLFTYDFEVGGTGYMGGRPGGTLWEKMNYAVGLEYGYSLPIARRLNLDFVIGVGYWGGEYHKYDPVDGCYVWKETLQRHWFGPTKAEVSLVWLLGRGNHNEKGGKEGHHHHHH,not soluble
2,MSLELLSKLETKIQATLETIELLKMELEEEKQKTSTLSEQNNQLIEQNQQLQQELTSWNEKVTGLVGLLNSEI,soluble
3,MSLELVSLLMQDCQSTGDIQSKLKRLFAGTIEQMLEAEMEDHLGYEKNSIEGNNSGNSRNGYNRKTIISDYGASEIAVPRDRNGEFEPKILEKRQTRTDEIEQKILSMYSKGMSQRDIEDTLREIYGAEIPQTLISKITDKILPEVNEWQNRPLESVYPIIYFDGIVFKSRKDSQIINKCVYSVLGIDMNGHKDILGIWLSENESASFYASICSDLKKRGIQDIFIACHDNLKGLGEAINAVFPKTKQQLCIVHQIRNSTKFVQYKDRKAICADLKKIYGAVNLDDAEYAKEEFREKWDKKYPSILRSWDANWAELTTFFNYPEQIRHLIYTTNAVEAYHRMVRKFTKTKSIFPTDDSIRKVVFLSSREITKKWTQPSRGWPMAYSQIMIFFADRFIAEGHHHHHH,soluble
4,MSLENDFPLKGKTVLVTRNKAQAASFQQKVEALGGKAVLTSLITFRRALPNDVAEQVREDLAAPGWLVFTSVNGADFFFSYLKENQLILPAHKKIAAVGEKTARRLKMHNVSVDVMPQEYIAEQLADALKQHAEPGETITVMKGNLSRDVIKQELVPLGFEVKEWVLYETIPDEEGIEALKDAAGQYSFDYVTFTSSSTVHTFMHVLGEELKKWKANGTACISIGPLTNDALLTYGITSHTPDTFTIDGMLELMCSMSREEERIEGHHHHHH,soluble
5,MSLENYWVDERTLVVSGDFFGVSTGLLGGWKRVRHAFNHTVSEEFHSMEPAEYLRKVARGYGLKSYFGLLTSVPIEKLSVKGCGEVTVFATAGVMNPNERVGTINIIAVFECRMSRAAMLNAIITATEAKTKALLEEGHNFTGTNTDAVVVLCTQKGGYHRYCGPASEVGQKLWRCAGEAVKDSLARWEGHHHHHH,not soluble
6,MSLEPCWKVGFAETSGCLPKLCIAQLRLPAFCNSEGLFGLFDGETGNGVPNLLVKAIPKILLEERTVKETANDYMKYTLLSAHRELKQRGQQEAVNVTLCHIARSRLPTEAMSYLPQTVASGRKFILRVATVGESSAVLIKHNRCVLLNKGSPARKLGLSANFPVTVPDPEVQEVVLTDADEYLVLGNRKLWEVITMETVAEEIRKEENILLAAKRVQDIAQSYGAEENLSVMIVRFNEGHHHHHH,soluble
7,MSLEQASVTNDFSENKQGCIQHPWQGKKVGYIGDSITDPNCYGDNIKKYWDFLKEWLGITPFVYGISGRQWDDVPRQAEKLKKEHGGEVDAILVFMGTNDYNSSVPIGEWFTEQEEQVLSAHGEMKKMVTRKKRTPVMTQDTYRGRINIGITQLKKLFPDKQIVLLTPLHRSLANFGDKNVQPDESYQNGCGEYIDAYVQAIKEAGNIWGIPVIDFNAVTGMNPMVEEQLIYFYDAGYDRLHPDTKGQERMARTLMYQLLALPVAFEGHHHHHH,soluble
8,MSLEQLLTNYSIETQTKSCEDFAFRIGFNDIKYMGGVSESAKDGNRKIYNEMLRYAMDKRNNIQAIIVYSMDRFSRHLASAAPDIEKLNKKNIILYSVQEQISSNDDMGIHFMNFKLSSSQFENRLRSSRARDGVRNRILMGKYPFATPPIGYNKDSDKNLVINEDGELLRKAFKMLLDGYSMMHIMKVMSRYGIIKPVNRWGEIFRNPIYAGLIVSKTNDNKPIKGIHQPIVSEKDFYKLQGIFEFKSKPRLKETDTIDIFPLKTLLQCPNGHGRLTGDIKKTKKNQPAYYKCNKCSFTASAQKANNAFLNLLSVVEFNQVFKDEFKEILDAVFENTFQEMTVKKNKLAREISIKETQLTNLFDAKFAEKINENKFEILSAKYTQSLEDMQKQLVFVTAELPEKKTFIEDCLIDLNNFEKLWDVAEYMDKQQIFNTIFKEKPSIVNNNHKIGLSNISLNPAFRSNLVELVHRKAIITGNYEGHHHHHH,not soluble

# Reference: the DeepSol protein solubility set
